Reference: patent US20180155451A1 (published 2018)

B1: GpH7-A5/GpH7-B3 variant G236_03V/GpL16-k0 (antibody, human IgG1, kappa)
heavy 1: not shown
heavy 2: not shown
light: DIVMTQSPLSLPVTPGEPASISCQASESLVHSNRNTYLHWYLQKPGQSPQLLIYKVSNRFSGVPDRFSGSGSGTDFTLKISRVEAEDVGVYYCSQNTHVPPTFGQGTKVEIERTVAAPSVFIFPPSDEQLKSGTASVVCLLNNFYPREAKVQWKVDNALQSGNSQESVTEQDSKDSTYSLSSTLTLSKADYEKHKVYACEVTHQGLSSPVTKSFNRGEC
notes: He Ab: alteration in one H chain only; also called He Ab
B2: GpH7-A5/GpH7-B3 variant G236_05P/GpL16-k0 (antibody, human IgG1, kappa)
heavy 1: not shown
heavy 2: not shown
light: B1 light
notes: as for B1
B3: GpH7-A5/GpH7-B3 variant L234_12R/GpL16-k0 (antibody, human IgG1, kappa)
heavy 1: not shown
heavy 2: not shown
light: B1 light
notes: as for B1
B4: GpH7-A5/GpH7-B3 variant L234_07I/GpL16-k0 (antibody, human IgG1, kappa)
heavy 1: not shown
heavy 2: not shown
light: B1 light
notes: as for B1
B5: GpH7-A5/GpH7-B3 variant L234_15Y/GpL16-k0 (antibody, human IgG1, kappa)
heavy 1: not shown
heavy 2: not shown
light: B1 light
notes: as for B1
B6: GpH7-A5/GpH7-B3 variant L234_16H/GpL16-k0 (antibody, human IgG1, kappa)
heavy 1: not shown
heavy 2: not shown
light: B1 light
notes: as for B1
B7: GpH7-A5/GpH7-B3 variant G236_15Y/GpL16-k0 (antibody, human IgG1, kappa)
heavy 1: not shown
heavy 2: not shown
light: B1 light
notes: as for B1
B8: GpH7-A5/GpH7-B3 variant L235_19Q/GpL16-k0 (antibody, human IgG1, kappa)
heavy 1: not shown
heavy 2: not shown
light: B1 light
notes: as for B1
B9: GpH7-A5/GpH7-B3 variant L235_03V/GpL16-k0 (antibody, human IgG1, kappa)
heavy 1: not shown
heavy 2: not shown
light: B1 light
notes: as for B1
B10: GpH7-A5/GpH7-B3 variant L235_11K/GpL16-k0 (antibody, human IgG1, kappa)
heavy 1: not shown
heavy 2: not shown
light: B1 light
notes: as for B1
B11: GpH7-A5/GpH7-B3 variant G236_20W/GpL16-k0 (antibody, human IgG1, kappa)
heavy 1: not shown
heavy 2: not shown
light: B1 light
notes: as for B1
B12: GpH7-A5/GpH7-B3 variant L235_14T/GpL16-k0 (antibody, human IgG1, kappa)
heavy 1: not shown
heavy 2: not shown
light: B1 light
notes: as for B1
B13: GpH7-A5/GpH7-B3 variant G236_08L/GpL16-k0 (antibody, human IgG1, kappa)
heavy 1: not shown
heavy 2: not shown
light: B1 light
notes: as for B1
B14: GpH7-A5/GpH7-B3 variant L234_05P/GpL16-k0 (antibody, human IgG1, kappa)
heavy 1: not shown
heavy 2: not shown
light: B1 light
notes: as for B1
B15: GpH7-A5/GpH7-B3 variant L235_01G/GpL16-k0 (antibody, human IgG1, kappa)
heavy 1: not shown
heavy 2: not shown
light: B1 light
notes: as for B1
B16: GpH7-A5/GpH7-B3 variant L234_03V/GpL16-k0 (antibody, human IgG1, kappa)
heavy 1: not shown
heavy 2: not shown
light: B1 light
notes: as for B1
B17: GpH7-A5/GpH7-B3 variant L234_19Q/GpL16-k0 (antibody, human IgG1, kappa)
heavy 1: not shown
heavy 2: not shown
light: B1 light
notes: as for B1
B18: GpH7-A5/GpH7-B3 variant G236_12R/GpL16-k0 (antibody, human IgG1, kappa)
heavy 1: not shown
heavy 2: not shown
light: B1 light
notes: as for B1
B19: GpH7-A5/GpH7-B3 variant L235_18N/GpL16-k0 (antibody, human IgG1, kappa)
heavy 1: not shown
heavy 2: not shown
light: B1 light
notes: as for B1
B20: GpH7-A5/GpH7-B3 variant L234_11K/GpL16-k0 (antibody, human IgG1, kappa)
heavy 1: not shown
heavy 2: not shown
light: B1 light
notes: as for B1
B21: GpH7-A5/GpH7-B3 variant G236_16H/GpL16-k0 (antibody, human IgG1, kappa)
heavy 1: not shown
heavy 2: not shown
light: B1 light
notes: as for B1
B22: GpH7-A5/GpH7-B3 variant L235_13S/GpL16-k0 (antibody, human IgG1, kappa)
heavy 1: not shown
heavy 2: not shown
light: B1 light
notes: as for B1
B23: GpH7-A5/GpH7-B3 variant L235_05P/GpL16-k0 (antibody, human IgG1, kappa)
heavy 1: not shown
heavy 2: not shown
light: B1 light
notes: as for B1
B24: GpH7-A5/GpH7-B3 variant G236_04F/GpL16-k0 (antibody, human IgG1, kappa)
heavy 1: not shown
heavy 2: not shown
light: B1 light
notes: as for B1
B25: GpH7-A5/GpH7-B3 variant H268_06M/GpL16-k0 (antibody, human IgG1, kappa)
heavy 1: not shown
heavy 2: not shown
light: B1 light
notes: as for B1
B26: GpH7-A5/GpH7-B3 variant G236_07I/GpL16-k0 (antibody, human IgG1, kappa)
heavy 1: not shown
heavy 2: not shown
light: B1 light
notes: as for B1
B27: GpH7-A5/GpH7-B3 variant S267_01G/GpL16-k0 (antibody, human IgG1, kappa)
heavy 1: not shown
heavy 2: not shown
light: B1 light
notes: heterodimerized IgG1, mutation in one H chain only; also called He Ab
B28: GpH7-A5/GpH7-B3 variant H268_13S/GpL16-k0 (antibody, human IgG1, kappa)
heavy 1: not shown
heavy 2: not shown
light: B1 light
notes: as for B27
B29: GpH7-A5/GpH7-B3 variant H268_02A/GpL16-k0 (antibody, human IgG1, kappa)
heavy 1: not shown
heavy 2: not shown
light: B1 light
notes: as for B27
B30: GpH7-A5/GpH7-B3 variant H268_19Q/GpL16-k0 (antibody, human IgG1, kappa)
heavy 1: not shown
heavy 2: not shown
light: B1 light
notes: as for B27
B31: GpH7-A5/GpH7-B3 variant H268_01G/GpL16-k0 (antibody, human IgG1, kappa)
heavy 1: not shown
heavy 2: not shown
light: B1 light
notes: as for B27
B32: GpH7-A5/GpH7-B3 variant H268_09D/GpL16-k0 (antibody, human IgG1, kappa)
heavy 1: not shown
heavy 2: not shown
light: B1 light
notes: as for B27
B33: GpH7-A5/GpH7-B3 variant H268_05P/GpL16-k0 (antibody, human IgG1, kappa)
heavy 1: not shown
heavy 2: not shown
light: B1 light
notes: as for B27
B34: GpH7-A5/GpH7-B3 variant H268_18N/GpL16-k0 (antibody, human IgG1, kappa)
heavy 1: not shown
heavy 2: not shown
light: B1 light
notes: as for B27
B35: GpH7-A5/GpH7-B3 variant H268_10E/GpL16-k0 (antibody, human IgG1, kappa)
heavy 1: not shown
heavy 2: not shown
light: B1 light
notes: as for B27

What follows are binders tested against T1, FcγRIIIa extracellular domain with C-terminal His tag (human, UniProt P08637 17-208) (assay: SPR; He/Con_3a over He/Con_2b (FcγRIIb)).
T1 construct: extracellular domain; also called 3a; FcgRIIIa
T1 sequence (P08637 17-208): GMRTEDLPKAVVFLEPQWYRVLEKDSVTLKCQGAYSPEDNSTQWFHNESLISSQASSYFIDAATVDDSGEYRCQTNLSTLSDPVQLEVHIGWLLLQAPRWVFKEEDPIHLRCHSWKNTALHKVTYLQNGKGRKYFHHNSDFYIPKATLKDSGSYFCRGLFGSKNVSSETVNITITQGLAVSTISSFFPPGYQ

Row | He_3a/2b (IIIa/IIb) [ratio] | Binder
1 | 1.64 | B1
2 | 1.95 | B2
3 | 1.95 | B3
4 | 1.27 | B4
5 | 1.35 | B5
6 | 1.34 | B6
7 | 3.06 | B7
8 | 1.65 | B8
9 | 1.48 | B9
10 | 6.06 | B10
11 | 2.33 | B11
12 | 1.62 | B12
13 | 1.21 | B13
14 | 1.21 | B14
15 | 1.66 | B15
16 | 1.25 | B16
17 | 1.32 | B17
18 | 1.84 | B18
19 | 1.23 | B19
20 | 1.88 | B20
21 | 1.54 | B21
22 | 1.44 | B22
23 | 1.3 | B23
24 | 2.21 | B24
25 | 1.22 | B25
26 | 1.93 | B26

These binders were tested against T2, FcγRIIb (human, UniProt P31994 43-217) (assay: SPR (Biacore), relative binding vs GpH7-A5/GpH7-B3/GpL16-k0).
T2 construct: extracellular domain; also called 2b
T2 sequence (looked up): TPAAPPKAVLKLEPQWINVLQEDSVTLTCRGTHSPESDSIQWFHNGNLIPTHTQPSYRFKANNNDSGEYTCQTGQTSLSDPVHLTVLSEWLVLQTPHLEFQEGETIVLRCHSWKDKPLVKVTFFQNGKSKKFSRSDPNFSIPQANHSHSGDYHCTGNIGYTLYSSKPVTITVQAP

Row | He/Con_2b | Binder
27 | 105 % of control He Ab (=100) | B27
28 | 160 % of control He Ab (=100) | B28
29 | 167 % of control He Ab (=100) | B29
30 | 133 % of control He Ab (=100) | B30
31 | 144 % of control He Ab (=100) | B31
32 | 239 % of control He Ab (=100) | B32
33 | 116 % of control He Ab (=100) | B33
34 | 156 % of control He Ab (=100) | B34
35 | 230 % of control He Ab (=100) | B35

What follows are binders tested against T3, FcγRIIa H (human, UniProt P12318 34-217) in the same assay as above.
T3 construct: extracellular domain; also called FcγRIIa type H; 2aH
T3 sequence (looked up): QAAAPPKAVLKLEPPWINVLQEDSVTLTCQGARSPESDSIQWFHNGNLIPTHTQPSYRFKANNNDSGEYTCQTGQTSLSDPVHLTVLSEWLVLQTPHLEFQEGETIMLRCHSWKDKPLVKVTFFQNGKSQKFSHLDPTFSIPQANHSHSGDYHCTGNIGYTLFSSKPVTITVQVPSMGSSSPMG

Row | He/Con_2aH | Binder
36 | 71.3 % of control He Ab (=100) | B27
37 | 112 % of control He Ab (=100) | B28
38 | 114 % of control He Ab (=100) | B29
39 | 102 % of control He Ab (=100) | B30
40 | 99.2 % of control He Ab (=100) | B31
41 | 133 % of control He Ab (=100) | B32
42 | 81.8 % of control He Ab (=100) | B33
43 | 112 % of control He Ab (=100) | B34
44 | 124 % of control He Ab (=100) | B35

What follows are binders tested against T1, FcγRIIIa extracellular domain with … (assay: SPR, relative to GpH7-A5/GpH7-B3/GpL16-k0).
Procedure: (§1) The heterodimerized antibodies He Abs in which one of the H chains was introduced with an alteration were assayed for their binding activities to each activating FcγR and inhibitory FcγR according to the method described in Example 4. […] The activating FcγRs in FIGS. 26, 27, 28, and 29 are FcγRIa, FcγRIIa (R), FcγRIIa (H), and FcγRIIIa, respectively.
(§2) Analysis of interaction between objective antibody and the FcγR was carried out using Biacore T100 (GE Healthcare). HBS-EP+ (GE Healthcare) was used as the running buffer, and the measurement temperature was set to 25° C. Chips produced by immobilizing the antigen peptide by the amine coupling method to a Series S Sencor Chip CM5 (GE Healthcare), or alternatively, chips produced by allowing preliminarily biotinylated antigen peptides to interact with and immobilize onto a Series S Sensor Chip SA (certified) (GE Healthcare) were used. Antibodies of interest were captured onto an antigen peptide-immobilized chip, and allowed to interact to each FcγR diluted with running buffer. To regenerate and repeatedly use the chip, the antibodies captured on the chip were washed off by reacting 10 mM glycine-HCl, pH 1.5.

Row | He/Con_3a [control=100] | Binder
45 | 57.7 | B1
46 | 37.1 | B2
47 | 36.9 | B3
48 | 103 | B4
49 | 130 | B5
50 | 79.5 | B6
51 | 121 | B7
52 | 70.5 | B8
53 | 98 | B9
54 | 38.1 | B10
55 | 135 | B11
56 | 75.8 | B12
57 | 32.5 | B13
58 | 88.1 | B14
59 | 58.8 | B15
60 | 91.4 | B16
61 | 79.8 | B17
62 | 12.5 | B18
63 | 67.3 | B19
64 | 30.5 | B20
65 | 43.1 | B21
66 | 69.6 | B22
67 | 71.1 | B23
68 | 87 | B24
69 | 80.3 | B25
70 | 59.7 | B26

Each binder was assayed against T4, FcγRIIb extracellular domain with C-terminal His tag (human, UniProt P31994 43-217) (assay: SPR, relative to GpH7-A5/GpH7-B3/GpL16-k0).
T4 construct: extracellular domain; also called 2b; FcgRIIb
T4 sequence (looked up): T2 sequence (looked up)
Procedure: as §1, §2

Row | He/Con_2b [control=100] | Binder
71 | 35.3 | B1
72 | 19 | B2
73 | 18.9 | B3
74 | 80.9 | B4
75 | 96.3 | B5
76 | 59.4 | B6
77 | 39.5 | B7
78 | 42.6 | B8
79 | 66.4 | B9
80 | 6.3 | B10
81 | 58.2 | B11
82 | 46.8 | B12
83 | 26.8 | B13
84 | 72.9 | B14
85 | 35.4 | B15
86 | 73.1 | B16
87 | 60.3 | B17
88 | 6.8 | B18
89 | 54.9 | B19
90 | 16.2 | B20
91 | 27.9 | B21
92 | 48.2 | B22
93 | 54.7 | B23
94 | 39.3 | B24
95 | 65.7 | B25
96 | 31 | B26

These binders were tested against T3, FcγRIIa H (assay: SPR; He/Con_2aH divided by He/Con_2b (FcγRIIb)).
Procedure: as §1, §2

Row | He_2aH/2b (IIaH/IIb) [ratio] | Binder
97 | 0.68 | B27
98 | 0.7 | B28
99 | 0.68 | B29
100 | 0.77 | B30
101 | 0.69 | B31
102 | 0.55 | B32
103 | 0.7 | B33
104 | 0.72 | B34
105 | 0.54 | B35
